Measured values published in US20030028002A1, “Cyclin D binding factor, and uses thereof” (published 2003).

T1: DMP1 (cyclin D-binding myb-like protein), murine, full length (mouse, UniProt Q8CE22 1-761, multiple phosphorylated forms when made in Sf9 cells (sites not given))
T1 sequence: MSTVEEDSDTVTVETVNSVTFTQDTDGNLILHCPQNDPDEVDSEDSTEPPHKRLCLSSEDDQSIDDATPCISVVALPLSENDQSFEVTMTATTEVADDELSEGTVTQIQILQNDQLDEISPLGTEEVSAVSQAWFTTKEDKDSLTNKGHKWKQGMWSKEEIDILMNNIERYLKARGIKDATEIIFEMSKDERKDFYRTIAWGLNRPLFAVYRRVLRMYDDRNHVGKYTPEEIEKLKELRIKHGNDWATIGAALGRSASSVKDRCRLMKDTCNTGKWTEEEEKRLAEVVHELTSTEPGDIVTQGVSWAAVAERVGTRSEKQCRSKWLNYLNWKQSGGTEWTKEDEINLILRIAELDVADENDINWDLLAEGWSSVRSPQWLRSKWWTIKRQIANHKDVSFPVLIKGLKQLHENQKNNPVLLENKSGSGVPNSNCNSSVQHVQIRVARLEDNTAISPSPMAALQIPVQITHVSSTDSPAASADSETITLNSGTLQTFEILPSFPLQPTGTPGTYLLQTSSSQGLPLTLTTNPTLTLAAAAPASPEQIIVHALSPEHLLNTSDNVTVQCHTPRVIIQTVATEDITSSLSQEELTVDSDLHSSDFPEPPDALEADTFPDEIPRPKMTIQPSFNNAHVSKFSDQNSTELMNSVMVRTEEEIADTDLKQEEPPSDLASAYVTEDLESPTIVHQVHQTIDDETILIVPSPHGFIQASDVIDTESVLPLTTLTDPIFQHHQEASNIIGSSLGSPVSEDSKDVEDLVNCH

T2: GST-DMP1 fusion protein (GST fused to residues 176-761 of DMP1)
T2 chain: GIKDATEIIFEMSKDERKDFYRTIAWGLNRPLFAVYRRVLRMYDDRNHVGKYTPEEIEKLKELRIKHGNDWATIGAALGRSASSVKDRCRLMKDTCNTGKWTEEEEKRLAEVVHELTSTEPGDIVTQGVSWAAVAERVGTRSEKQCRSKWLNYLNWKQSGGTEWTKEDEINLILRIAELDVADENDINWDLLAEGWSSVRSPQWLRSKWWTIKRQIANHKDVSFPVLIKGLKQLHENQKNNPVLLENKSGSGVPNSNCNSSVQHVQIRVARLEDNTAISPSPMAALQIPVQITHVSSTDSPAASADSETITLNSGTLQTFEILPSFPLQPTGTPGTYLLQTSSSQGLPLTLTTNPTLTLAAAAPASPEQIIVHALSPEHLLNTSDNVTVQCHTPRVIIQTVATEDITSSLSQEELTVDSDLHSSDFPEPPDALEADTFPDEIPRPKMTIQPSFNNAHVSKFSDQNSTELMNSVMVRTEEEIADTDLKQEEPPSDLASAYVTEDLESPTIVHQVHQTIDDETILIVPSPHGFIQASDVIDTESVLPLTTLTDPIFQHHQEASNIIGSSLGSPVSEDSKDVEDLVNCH

B1: cyclin D2 (other, mouse, UniProt P30280 1-289, looked up)
chain: MELLCCEVDPVRRAVPDRNLLEDRVLQNLLTIEERYLPQCSYFKCVQKDIQPYMRRMVATWMLEVCEEQKCEEEVFPLAMNYLDRFLAGVPTPKTHLQLLGAVCMFLASKLKETIPLTAEKLCIYTDNSVKPQELLEWELVVLGKLKWNLAAVTPHDFIEHILRKLPQQKEKLSLIRKHAQTFIALCATDFKFAMYPPSMIATGSVGAAICGLQQDDEVNTLTCDALTELLAKITHTDVDCLKACQEQIEALLLNSLQQFRQEQHNAGSKSVEDPDQATTPTDVRDVDL
B2: cyclin D3 (other, mouse, UniProt P30282 1-292, looked up)
chain: MELLCCEGTRHAPRAGPDPRLLGDQRVLQSLLRLEERYVPRASYFQCVQKEIKPHMRKMLAYWMLEVCEEQRCEEDVFPLAMNYLDRYLSCVPTRKAQLQLLGTVCLLLASKLRETTPLTIEKLCIYTDQAVAPWQLREWEVLVLGKLKWDLAAVIAHDFLALILHRLSLPSDRQALVKKHAQTFLALCATDYTFAMYPPSMIATGSIGAAVLGLGACSMSADELTELLAGITGTEVDCLRACQEQIEAALRESLREAAQTAPSPVPKAPRGSSSQGPSQTSTPTDVTAIHL

How the values were obtained:
cyclin D2 = biological target: B1; assay: GST pull-down of 35S-labelled in vitro translated cyclin on glutathione-Sepharose, gel autoradiography
Procedure: (§1) Because DMP1 interacted with cyclin D2 in yeast, the ability of a glutathione S-transferase (GST)-DMP1 fusion protein to bind D-type cyclins in vitro is examined. GST is fused to residues 176-761 of DMP1 (in lieu of GAL4 in the original cDNA clone), and the bacterially synthesized recombinant protein is incubated with [³⁵S]methionine-labeled D-type cyclins prepared by transcription and translation in vitro. As a positive control, GST-RB which can specifically bind D-type cyclins in this assay is used (15). Bound cyclins recovered on washed glutathione-Sepharose beads are analyzed by electrophoresis on denaturing gels. […] GST-DMP1 is less efficient than GST-RB in binding cyclins D2 and D3 (˜4-fold less binding), and under these conditions, an interaction with D1 is not detected (lanes 3, 7, 11). No labeled proteins bind to GST alone (lanes 4, 8, 12), and neither cyclin A nor cyclin E bind to GST-RB or to GST-DMP1. A cyclin D2 mutant disrupted in an amino-terminal Leu-X-Cys-X-Glu pentapeptide that is required for high efficiency GST-RB binding is not detectably compromised in its interaction with GST-DMP1 (negative data not shown); in agreement, DMP1 bears no homology to RB or to RB-related family members (p107 and p130).

cyclin D3 = biological target: B2; assay: as above
Procedure: as §1

[1] = biological target: T1, DMP1 (cyclin D-binding myb-like …); assay: cell-based or functional assay
[2] = biological target: T2, GST-DMP1 fusion protein (GST fused to …)
[3] = biological target: GST-RB fusion protein [GST: P08515]
GST-RB fusion protein [GST: P08515], sequence (P08515 whole entry, looked up, the tested form may be a part): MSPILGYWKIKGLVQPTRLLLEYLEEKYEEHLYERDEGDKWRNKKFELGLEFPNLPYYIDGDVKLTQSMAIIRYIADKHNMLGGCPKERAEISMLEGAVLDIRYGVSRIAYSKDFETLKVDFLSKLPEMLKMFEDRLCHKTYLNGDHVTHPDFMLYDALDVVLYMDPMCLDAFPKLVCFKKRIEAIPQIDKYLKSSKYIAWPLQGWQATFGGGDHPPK

| Luciferase Activity (DMP1 transactivation of a DMP1-responsive reporter; DMP1 alone 8.4, no DMP1 1.0) [1] | Molecule | in vitro phosphorylation of the GST fusion protein by Sf9 lysates (32P) [2] | in vitro phosphorylation of the GST fusion protein by Sf9 lysates (32P) [3] | also measured |
| --- | --- | --- | --- | --- |
|  | GST-RB fusion protein (from UniProt P08515 1-218) |  |  | percent of the total input protein bound (cyclin D2): 20%; percent of the total input protein bound (cyclin D3): 20% |
| 1.6 relative to empty expression vector = 1.0 | B1 |  |  |  |
| 1.6 relative to empty expression vector = 1.0 | B2 |  |  |  |
|  | cyclin D1-CDK4 complex (protein) chain 1: MEHQLLCCEVETIRRAYPDTNLLNDRVLRAMLKTEETCAPSVSYFKCVQKEIVPSMRKIVATWMLEVCEEQKCEEEVFPLAMNYLDRFLSLEPLKKSRLQLLGATCMFVASKMKETIPLTAEKLCIYTDNSIRPEELLQMELLLVNKLKWNLAAMTPHDFIEHFLSKMPEADENKQTIRKHAQTFVALCATDVKFISNPPSMVAAGSVVAAMQGLNLGSPNNFLSCYRTTHFLSRVIKCDPDCLRACQEQIEALLESSLRQAQQNVDPKATEEEGEVEEEAGLACTPTDVRDVDI chain 2: MAATRYEPVAEIGVGAYGTVYKARDPHSGHFVALKSVRVPNGGAAGGGLPVSTVREVALLRRLEAFEHPNVVRLMDVCATSRTDRDIKVTLVFEHIDQDLRTYLDKAPPPGLPVETIKDLMRQFLSGLDFLHANCIVHRDLKPENILVTSNGTVKLADFGLARIYSYQMALTPVVVTLWYRAPEVLLQSTYATPVDMWSVGCIFAEMFRRKPLFCGNSEADQLGKIFDLIGLPPEDDWPREVSLPRGAFAPRGPRPVQSVVPEMEESGAQLLLEMLTFNPHKRISAFRALQHSYLHKEESDAE | lysates containing active cyclin D-CDK4 complexes phosphorylate both | Under equivalent conditions, GST-RB is always a preferred substrate |  |
|  | cyclin D2-CDK4 complex (protein) chain 1: MELLCCEVDPVRRAVPDRNLLEDRVLQNLLTIEERYLPQCSYFKCVQKDIQPYMRRMVATWMLEVCEEQKCEEEVFPLAMNYLDRFLAGVPTPKTHLQLLGAVCMFLASKLKETIPLTAEKLCIYTDNSVKPQELLEWELVVLGKLKWNLAAVTPHDFIEHILRKLPQQKEKLSLIRKHAQTFIALCATDFKFAMYPPSMIATGSVGAAICGLQQDDEVNTLTCDALTELLAKITHTDVDCLKACQEQIEALLLNSLQQFRQEQHNAGSKSVEDPDQATTPTDVRDVDL chain 2: MAATRYEPVAEIGVGAYGTVYKARDPHSGHFVALKSVRVPNGGAAGGGLPVSTVREVALLRRLEAFEHPNVVRLMDVCATSRTDRDIKVTLVFEHIDQDLRTYLDKAPPPGLPVETIKDLMRQFLSGLDFLHANCIVHRDLKPENILVTSNGTVKLADFGLARIYSYQMALTPVVVTLWYRAPEVLLQSTYATPVDMWSVGCIFAEMFRRKPLFCGNSEADQLGKIFDLIGLPPEDDWPREVSLPRGAFAPRGPRPVQSVVPEMEESGAQLLLEMLTFNPHKRISAFRALQHSYLHKEESDAE | lysates containing active cyclin D-CDK4 complexes phosphorylate both | Under equivalent conditions, GST-RB is always a preferred substrate |  |
| 1.5 relative to empty expression vector = 1.0 | cyclin D1 (other, mouse, UniProt P25322 1-295, looked up) MEHQLLCCEVETIRRAYPDTNLLNDRVLRAMLKTEETCAPSVSYFKCVQKEIVPSMRKIVATWMLEVCEEQKCEEEVFPLAMNYLDRFLSLEPLKKSRLQLLGATCMFVASKMKETIPLTAEKLCIYTDNSIRPEELLQMELLLVNKLKWNLAAMTPHDFIEHFLSKMPEADENKQTIRKHAQTFVALCATDVKFISNPPSMVAAGSVVAAMQGLNLGSPNNFLSCYRTTHFLSRVIKCDPDCLRACQEQIEALLESSLRQAQQNVDPKATEEEGEVEEEAGLACTPTDVRDVDI |  |  |  |
|  | cyclin D3-CDK4 complex (protein) chain 1: MELLCCEGTRHAPRAGPDPRLLGDQRVLQSLLRLEERYVPRASYFQCVQKEIKPHMRKMLAYWMLEVCEEQRCEEDVFPLAMNYLDRYLSCVPTRKAQLQLLGTVCLLLASKLRETTPLTIEKLCIYTDQAVAPWQLREWEVLVLGKLKWDLAAVIAHDFLALILHRLSLPSDRQALVKKHAQTFLALCATDYTFAMYPPSMIATGSIGAAVLGLGACSMSADELTELLAGITGTEVDCLRACQEQIEAALRESLREAAQTAPSPVPKAPRGSSSQGPSQTSTPTDVTAIHL chain 2: MAATRYEPVAEIGVGAYGTVYKARDPHSGHFVALKSVRVPNGGAAGGGLPVSTVREVALLRRLEAFEHPNVVRLMDVCATSRTDRDIKVTLVFEHIDQDLRTYLDKAPPPGLPVETIKDLMRQFLSGLDFLHANCIVHRDLKPENILVTSNGTVKLADFGLARIYSYQMALTPVVVTLWYRAPEVLLQSTYATPVDMWSVGCIFAEMFRRKPLFCGNSEADQLGKIFDLIGLPPEDDWPREVSLPRGAFAPRGPRPVQSVVPEMEESGAQLLLEMLTFNPHKRISAFRALQHSYLHKEESDAE | different preparations of cyclin D3-CDK4 are routinely more active than D2- or D1-containing holoenzymes in phosphorylating DMP1 | Under equivalent conditions, GST-RB is always a preferred substrate |  |
